The values below come from paper PMC12501291, “Cancer-associated fibroblasts expressing FSTL3 promote vasculogenic mimicry formation and drive colon cancer malignancy” (Cell Death & Disease, 2025).

This experiment has as its target T1, FSTL3-FC (biotin) (UniProt O95633, biotin).
T1 construct: FSTL3 gene fused with a human Fc fragment in pCDNA3.4; also called biotinylated FSTL3-FC; source: 293F cells, transfected, purified (Protein A), biotinylated, ultrafiltration; made by SGE BIOTECH
In words: ELISA; sandwich ELISA with biotinylated FSTL3-FC, aFSTL3 and Activin A-mFC; in vitro. As to conditions: both partners purified. (In general: ELISA stands for enzyme-linked immunosorbent assay.)

T1 sequence (O95633 27-263): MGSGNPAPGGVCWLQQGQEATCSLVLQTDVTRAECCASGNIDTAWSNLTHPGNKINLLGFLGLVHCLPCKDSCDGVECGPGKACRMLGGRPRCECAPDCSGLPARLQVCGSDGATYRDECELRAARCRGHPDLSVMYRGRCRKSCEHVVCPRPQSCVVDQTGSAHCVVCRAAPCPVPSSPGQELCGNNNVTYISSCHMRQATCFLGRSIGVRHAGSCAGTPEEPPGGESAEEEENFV

B1: FSTL3-targeting antibodies (aFSTL3) (antibody, V domains shown)
VH: EVQLQQSAAELARPGASVKMSCKASGYSFTTYTMHWVKQRPGQGLEWIGYIHPSSGYTDHIQKFKDKTILTADKSSSTAYMQLNSLTSEDSAVYYCARLDYGYWGQGTTLTVSS
VL: DILMTQTPLSLPVSLGDQASISCRSSQSIVHSNGNTYLEWYLQKPGQSPKLLIYKVSNRFSGVPDRFTGSGSGTDFTLKISRVEAADLGVYYCFQSSHIPPTFGGGTKLEIK
notes: cloned into the PTT5-human IgG1 CH vector; cloned into the PTT5-human kappa CL vector; Human IgG1 CH, human kappa CL; source: 293F cells, transfected, purified (Protein A); made by SGE BIOTECH
On to B1, for which the binding result is “binds”.
